This is an account of results in article PMC8026080, “Functional regulation of the structure-specific endonuclease FEN1 by the human cytomegalovirus protein IE1 suggests a role for the re-initiation of stalled viral replication forks” (PLoS Pathogens, 2021).

Assay [1] addresses FLAG-FEN1 (full length) (UniProt P39748).
Assay [2] concerns the target FLAG-FEN1 (full length) (UniProt P39748 1-380). Nature of the assay: cell-based or functional assay.

FLAG-FEN1 (full length) (UniProt P39748), sequence (P39748 whole entry): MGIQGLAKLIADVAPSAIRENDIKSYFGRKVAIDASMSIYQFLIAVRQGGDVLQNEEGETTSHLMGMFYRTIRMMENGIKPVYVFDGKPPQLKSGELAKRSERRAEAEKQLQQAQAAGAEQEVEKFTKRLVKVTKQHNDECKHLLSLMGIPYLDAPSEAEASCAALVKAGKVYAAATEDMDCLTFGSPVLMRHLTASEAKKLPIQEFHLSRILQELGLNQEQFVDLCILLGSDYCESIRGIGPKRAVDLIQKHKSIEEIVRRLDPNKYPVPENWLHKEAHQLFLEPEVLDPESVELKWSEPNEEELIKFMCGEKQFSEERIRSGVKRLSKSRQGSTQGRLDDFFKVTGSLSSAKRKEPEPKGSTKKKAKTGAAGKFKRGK
FLAG-FEN1 (full length) (UniProt P39748 1-380), sequence (P39748 whole entry): as above

As for “HCMV immediate early protein 1 (IE1) expressed in AD169-infected cells (natural protein)”, the normalized pFEN1 (Ser187)/FEN1 ratio by densitometry of Western blots, 293T cells transfected with FLAG-FEN1 and untagged IE1 wt (FEN1 alone set to 1) in the assay with FLAG-FEN1 (full length) [1] was 2.4.

B1: Myc-IE1 1–382 5x mut (domain or fragment, human cytomegalovirus, UniProt P13202 1-382, looked up)
chain: MESSAKRKMDPDNPDEGPSSKVPRPETPVTKATTFLQTMLRKEVNSQLSLGDPLFPELAEESLKTFEQVTEDCNENPEKDVLAELVKQIKVRVDMVRHRIKEHMLKKYTQTEEKFTGAFNMMGGCLQNALDILDKVHEPFEEMKCIGLTMQSMYENYIVPEDKREMWMACIKELHDVSKGAANKLGGALQAKARAKKDELRRKMMYMCYRNIEFFTKNSAFPATTNGCSQAMAALQALPQCSPDEIMAYAQKIFKILDEERDKVLTHIDHIFMDILTTCVETMCAEYKVTSDACMATMYGGISLLSEFCAVLCCYVLEETSVMLAKRPLITKPEVISVMKRRIEEICMKVFAQYILGADPLRVCSPSVDDLRAIAEESDEEE
Consider B1, for which the “normalized pFEN1 (Ser187)/FEN1 ratio by densitometry of Western blots, 293T cells transfected with FLAG-FEN1 and full-length IE1 5x mut (FEN1 alone set to 1)” value in the assay with FLAG-FEN1 (full length) [2] turned out to be 1.5 ratio.
